The target in experiment [1] is recombinant Factor VIIa (rFVIIa).
Experiment [2] has the same target. Kind of experiment: BLI; Octet Red, Ni-NTA biosensors, 37 °C, 1000 rpm; association 180 sec, dissociation 10 min; 1:1 model, global fit; the legend of Figure 4b says rFVIIa was immobilised.

Sequence of recombinant Factor VIIa (rFVIIa) (P08709 whole entry): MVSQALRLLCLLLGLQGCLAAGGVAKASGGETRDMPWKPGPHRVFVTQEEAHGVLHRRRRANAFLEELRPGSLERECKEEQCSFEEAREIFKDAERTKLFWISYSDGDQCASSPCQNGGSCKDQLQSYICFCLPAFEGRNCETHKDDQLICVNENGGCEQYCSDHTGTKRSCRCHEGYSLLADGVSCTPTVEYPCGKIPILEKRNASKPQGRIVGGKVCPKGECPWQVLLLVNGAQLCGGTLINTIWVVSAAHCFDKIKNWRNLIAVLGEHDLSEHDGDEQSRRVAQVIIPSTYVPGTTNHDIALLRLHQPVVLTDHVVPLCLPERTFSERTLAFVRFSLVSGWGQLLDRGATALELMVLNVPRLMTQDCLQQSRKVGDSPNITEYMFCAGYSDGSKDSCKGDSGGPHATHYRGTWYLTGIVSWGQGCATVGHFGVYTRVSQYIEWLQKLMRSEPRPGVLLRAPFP

B1: E-76 peptide (peptide)
peptide: ALCDDPRVDRWYCQFVEG
The term Kd denotes the free concentration of one partner at which half of the binding sites on the other are occupied at equilibrium, for simple one-to-one binding. On to B1, for which the prothrombin time (PT) in citrated human plasma, maximal fold prolongation over normal clotting time in experiment [1] is 3 fold. Moreover, the Kd in experiment [2] came to 6.2 nM.

(Values after PMC5118791.)
